Test results taken from patent US20220289850 (published 2022).

Target: T1, mouse integrin avb8 (mouse)
T1 chain 1: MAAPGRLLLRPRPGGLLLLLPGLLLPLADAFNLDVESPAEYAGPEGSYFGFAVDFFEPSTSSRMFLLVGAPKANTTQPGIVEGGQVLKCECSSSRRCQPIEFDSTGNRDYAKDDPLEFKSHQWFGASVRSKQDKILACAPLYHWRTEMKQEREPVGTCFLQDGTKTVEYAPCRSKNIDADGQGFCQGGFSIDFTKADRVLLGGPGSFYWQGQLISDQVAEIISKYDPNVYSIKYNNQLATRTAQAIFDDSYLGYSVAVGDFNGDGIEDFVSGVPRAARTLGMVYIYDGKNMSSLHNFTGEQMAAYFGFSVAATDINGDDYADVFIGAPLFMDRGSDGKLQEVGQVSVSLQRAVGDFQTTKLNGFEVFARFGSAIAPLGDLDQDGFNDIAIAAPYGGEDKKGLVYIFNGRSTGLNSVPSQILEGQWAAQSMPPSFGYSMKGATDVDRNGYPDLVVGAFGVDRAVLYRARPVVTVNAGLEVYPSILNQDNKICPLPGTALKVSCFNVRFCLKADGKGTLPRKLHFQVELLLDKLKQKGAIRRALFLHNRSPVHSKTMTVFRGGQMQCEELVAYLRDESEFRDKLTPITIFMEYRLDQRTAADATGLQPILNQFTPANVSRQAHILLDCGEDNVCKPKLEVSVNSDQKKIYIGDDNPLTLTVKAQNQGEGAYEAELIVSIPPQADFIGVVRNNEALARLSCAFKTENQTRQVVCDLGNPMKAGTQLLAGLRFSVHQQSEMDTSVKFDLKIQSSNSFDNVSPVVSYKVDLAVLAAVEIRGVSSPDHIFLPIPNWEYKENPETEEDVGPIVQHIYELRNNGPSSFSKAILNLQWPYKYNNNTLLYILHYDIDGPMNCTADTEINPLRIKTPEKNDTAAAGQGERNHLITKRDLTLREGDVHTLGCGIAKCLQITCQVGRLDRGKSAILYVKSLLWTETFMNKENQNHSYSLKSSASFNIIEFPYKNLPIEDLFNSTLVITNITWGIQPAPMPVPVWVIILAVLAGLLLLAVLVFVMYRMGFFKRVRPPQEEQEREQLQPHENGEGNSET
T1 chain 2: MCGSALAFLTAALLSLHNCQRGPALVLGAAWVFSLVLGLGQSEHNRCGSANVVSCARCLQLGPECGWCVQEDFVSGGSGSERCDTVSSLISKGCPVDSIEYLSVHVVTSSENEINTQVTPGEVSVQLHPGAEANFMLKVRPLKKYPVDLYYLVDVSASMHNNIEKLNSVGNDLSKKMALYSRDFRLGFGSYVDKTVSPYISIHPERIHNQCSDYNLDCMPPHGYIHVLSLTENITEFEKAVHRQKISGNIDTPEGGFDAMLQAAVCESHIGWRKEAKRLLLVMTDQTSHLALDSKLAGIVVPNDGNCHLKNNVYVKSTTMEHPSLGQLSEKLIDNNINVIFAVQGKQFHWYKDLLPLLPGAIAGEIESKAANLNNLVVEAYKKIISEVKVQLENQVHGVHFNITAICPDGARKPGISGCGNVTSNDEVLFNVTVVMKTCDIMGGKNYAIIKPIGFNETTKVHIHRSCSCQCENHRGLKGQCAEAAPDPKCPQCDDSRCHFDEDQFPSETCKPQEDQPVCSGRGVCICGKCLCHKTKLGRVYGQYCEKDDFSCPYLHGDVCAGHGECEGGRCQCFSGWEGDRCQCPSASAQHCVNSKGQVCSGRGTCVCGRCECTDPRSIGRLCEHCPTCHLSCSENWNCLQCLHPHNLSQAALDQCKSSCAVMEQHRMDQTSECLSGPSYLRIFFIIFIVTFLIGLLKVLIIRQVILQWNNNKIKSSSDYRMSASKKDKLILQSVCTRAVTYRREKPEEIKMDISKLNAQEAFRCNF
Experiment: FACS C8-S cells

- EC50: 0.145 nM
B1: ADWA11 2.4 IgG (antibody)
chain 1: EVQLVESGGGLVQPGGSLRLSCAASGFNIKDYYMNWVRQAPGKGLEWVGWIDPDQGNTIYEPKFQGRFTISADTSKNSAYLQMNSLRAEDTAVYYCARRLLMDYWGQGTLVTVSSASTKGPSVFPLAPSSKSTSGGTAALGCLVKDYFPEPVTVSWNSGALTSGVHTFPAVLQSSGLYSLSSVVTVPSSSLGTQTYICNVNHKPSNTKVDKKVEPKSCDKTHTCPPCPAPEAAGAPSVFLFPPKPKDTLMISRTPEVTCVVVDVSHEDPEVKFNWYVDGVEVHNAKTKPREEQYNSTYRVVSVLTVLHQDWLNGKEYKCKVSNKALPAPIEKTISKAKGQPREPQVYTLPPSREEMTKNQVSLTCLVKGFYPSDIAVEWESNGQPENNYKTTPPVLDSDGSFFLYSKLTVDKSRWQQGNVFSCSVMHEALHNHYTQKSLSLSPGK
chain 2: DIQMTQSPSSLSASVGDRVTITCRSTKSLSHFNGNTYLFWYQQKPGKAPKRLIYYMSSLASGVPSRFSGSGSGTDFTLTISSLQPEDFATYYCQQSLEYPFTFGGGTKVEIKRTVAAPSVFIFPPSDEQLKSGTASVVCLLNNFYPREAKVQWKVDNALQSGNSQESVTEQDSKDSTYSLSSTLTLSKADYEKHKVYACEVTHQGLSSPVTKSFNRGEC
